For series [1], the target named is T1, GST-VIP1ΔN164 (Arabidopsis thaliana, UniProt Q9MA75 165-341).
T1 sequence: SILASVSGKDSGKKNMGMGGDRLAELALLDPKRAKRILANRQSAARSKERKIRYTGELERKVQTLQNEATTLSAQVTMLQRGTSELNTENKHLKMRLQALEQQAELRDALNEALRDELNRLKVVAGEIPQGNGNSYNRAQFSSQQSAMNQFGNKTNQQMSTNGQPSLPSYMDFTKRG
Kind of series: competition; EMSA, CYP707A1 probe, competitor 0.5 µM; Gel shift with DIG-labeled probes as in cited ref. 17; competitors 0.5 µM unless stated; binding buffer, pH and temperature not given. Particulars: protein: recombinant; tags: N-terminal GST; chain copies: 2; blunt. In general terms: In EMSA bound probe runs differently from free probe, usually more slowly.

In series [2] the target is T1, GST-VIP1ΔN164. Nature of the series: competition; EMSA, CYP707A1 probe; inhibits to same extent as A1; Gel shift with DIG-labeled probes as in cited ref. 17; competitors 0.5 µM unless stated; binding buffer, pH and temperature not given. The note with it: protein: recombinant; tags: N-terminal GST; chain copies: 2; blunt.

B1: A1 (dsDNA)
DNA 1: CTCTCAAATGAGCTGTCTCTC
DNA 2: GAGAGACAGCTCATTTGAGAG
B1: the binding result with GST-VIP1ΔN164 [1] is listed as “binds”.

B2: A3 (dsDNA)
DNA 1: CTCTCAAATTAGCTGGCTCCA
DNA 2: TGGAGCCAGCTAATTTGAGAG
In the case of B2, the binding result in the series with GST-VIP1ΔN164 [2] is “binds”.

Source of the values: article PMC4122391, “Analysis of Functions of VIP1 and Its Close Homologs in Osmosensory Responses of Arabidopsis thaliana”.
